In patent publication WO2021028359A1 (dated 2021):

Biological target: HLA-A2 on HLA-A2 positive peripheral blood mononuclear cells (human)
Test: cell-based or functional assay

CD69 cell surface expression on Tregs transduced with TX135 (PGK promoter), 24 h co-incubation, flow cytometry: 3.7 fold
CD69 cell surface expression on Tregs transduced with pTX137 (EF1a promoter), 24 h co-incubation, flow cytometry: < 2 fold
CD69 cell surface expression on Tregs transduced with pTX138 (EF1a promoter + WpreMut6), 24 h co-incubation, flow cytometry: < 2 fold
B1: HLA-A2 CAR (anti-HLA-A2 chimeric antigen receptor: CD8 leader, scFv directed against HLA-A2, CD8 alpha linker and transmembrane domain, CD28 activation domain, … (receptor)
chain: SQVQLQQSGPELVKPGASVKMSCKASGYTFTSYHIQWVKQRPGQGLEWIGWIYPGDGSTQYNEKFKGKTTLTADKSSSTAYMLLSSLTSEDSAIYFCAREGTYYAMDYWGQGTSVTVSSGGGGSGGGGSGGGGSDVLMTQTPLSLPVSLGDQVSISCRSSQSIVHSNGNTYLEWYLQKPGQSPKLLIYKVSNRFSGVPDRFSGSGSGTDFTLKISRVEAEDLGVYYCFQGSHVPRTFGGGTKLEIKRTTTPAPRPPTPAPTIASQPLSLRPEACRPAAGGAVHTRGLDFACDIYIWAPLAGTCGVLLLSLVITLYCRSKRSRLLHSDYMNMTPRRPGPTRKHYQPYAPPRDFAAYRSRVKFSRSADAPAYQQGQNQLYNELNLGRREEYDVLDKRRGRDPEMGGKPRRKNPQEGLYNELQKDKMAEAYSEIGMKGERRRGKGHDGLYQGLSTATKDTYDALHMQALPPR
